Reference: patent US6710026B1, “Protein domains in the hepatic glycogen-targetting subunit of protein phosphatase 1 and methods of making and using the same” (Medical Research Counsel, priority 1998, dated 2004)
Where no end group is shown, it is not given here.

T1: phosphorylase a (Oryctolagus cuniculus, UniProt P00489)
T1 sequence (P00489 2-843 limits assumed): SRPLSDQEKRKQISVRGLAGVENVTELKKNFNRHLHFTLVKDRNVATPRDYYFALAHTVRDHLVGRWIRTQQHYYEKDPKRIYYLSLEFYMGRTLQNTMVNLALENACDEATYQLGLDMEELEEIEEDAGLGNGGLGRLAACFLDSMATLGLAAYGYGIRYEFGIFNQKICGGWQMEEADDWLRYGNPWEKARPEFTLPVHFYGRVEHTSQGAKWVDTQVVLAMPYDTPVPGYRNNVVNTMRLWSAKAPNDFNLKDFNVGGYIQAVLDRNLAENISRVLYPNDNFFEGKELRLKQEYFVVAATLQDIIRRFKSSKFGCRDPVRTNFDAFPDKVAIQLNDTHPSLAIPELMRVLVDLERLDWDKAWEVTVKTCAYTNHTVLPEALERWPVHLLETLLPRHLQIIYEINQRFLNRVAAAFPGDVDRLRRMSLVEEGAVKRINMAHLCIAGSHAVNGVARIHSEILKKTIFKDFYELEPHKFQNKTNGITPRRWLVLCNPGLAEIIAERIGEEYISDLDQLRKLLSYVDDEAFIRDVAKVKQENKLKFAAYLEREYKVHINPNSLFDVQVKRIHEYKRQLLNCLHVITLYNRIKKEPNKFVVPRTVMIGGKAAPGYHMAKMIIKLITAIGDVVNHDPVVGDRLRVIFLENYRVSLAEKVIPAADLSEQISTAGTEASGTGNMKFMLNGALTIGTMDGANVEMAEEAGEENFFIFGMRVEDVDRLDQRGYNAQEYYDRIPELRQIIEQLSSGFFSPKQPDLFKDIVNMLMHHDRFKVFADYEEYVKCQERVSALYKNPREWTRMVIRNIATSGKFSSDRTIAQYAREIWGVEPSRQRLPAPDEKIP

B1: GST-GL: glutathione S-transferase fused to the full-length GL coding region (residues 1-284) of rat liver GL (protein)
chain: MAVDIEYSYSSMAPSLRRERFTFKISPKLNKPLRPCIQLGSKDEAGRMVAPTVQEKKVKKRVSFADNQGLALTMVKVFSEFDDPLDIPFNITELLDNIVSLTTAESESFVLDFPQPSADYLDFRNRLQTNHVCLENCVLKEKAIAGTVKVQNLAFEKVVKIRMTFDTWKSFTDFPCQYVKDTYAGSDRDTFSFDISLPEKIQSYERMEFAVCYECNGQSYWDSNKGKNYRITRAELRSTQGMTEPYNGPDFGISFDQFGSPRCSFGLFPEWPSYLGYEKLGPYY
modifications: left off: a dimerising Fc or GST
notes: glutathione S-transferase fused to the full-length GL coding region (residues 1-284) of rat liver GL
B2: GST-GL(94-284): GST fused to GL residues 94-284 (protein)
chain: LLDNIVSLTTAESESFVLDFPQPSADYLDFRNRLQTNHVCLENCVLKEKAIAGTVKVQNLAFEKVVKIRMTFDTWKSFTDFPCQYVKDTYAGSDRDTFSFDISLPEKIQSYERMEFAVCYECNGQSYWDSNKGKNYRITRAELRSTQGMTEPYNGPDFGISFDQFGSPRCSFGLFPEWPSYLGYEKLGPYY
modifications: left off: a dimerising Fc or GST
B3: GST-GL(216-284): GST fused to GL residues 216-284 (protein)
chain: {GST}-NGQSYWDSNKGKNYRITRAELRSTQGMTEPYNGPDFGISFDQFGSPRCSFGLFPEWPSYLGYEKLGPYY
B4: GST-GL(1-216): GST fused to GL residues 1-216 (protein)
chain: MAVDIEYSYSSMAPSLRRERFTFKISPKLNKPLRPCIQLGSKDEAGRMVAPTVQEKKVKKRVSFADNQGLALTMVKVFSEFDDPLDIPFNITELLDNIVSLTTAESESFVLDFPQPSADYLDFRNRLQTNHVCLENCVLKEKAIAGTVKVQNLAFEKVVKIRMTFDTWKSFTDFPCQYVKDTYAGSDRDTFSFDISLPEKIQSYERMEFAVCYECN
modifications: left off: a dimerising Fc or GST
B5: GST-GL(1-257): GST fused to GL residues 1-257 (protein)
chain: MAVDIEYSYSSMAPSLRRERFTFKISPKLNKPLRPCIQLGSKDEAGRMVAPTVQEKKVKKRVSFADNQGLALTMVKVFSEFDDPLDIPFNITELLDNIVSLTTAESESFVLDFPQPSADYLDFRNRLQTNHVCLENCVLKEKAIAGTVKVQNLAFEKVVKIRMTFDTWKSFTDFPCQYVKDTYAGSDRDTFSFDISLPEKIQSYERMEFAVCYECNGQSYWDSNKGKNYRITRAELRSTQGMTEPYNGPDFGISFDQ
modifications: left off: a dimerising Fc or GST
B6: GST-GL(1-271): GST fused to GL residues 1-271 (protein)
chain: MAVDIEYSYSSMAPSLRRERFTFKISPKLNKPLRPCIQLGSKDEAGRMVAPTVQEKKVKKRVSFADNQGLALTMVKVFSEFDDPLDIPFNITELLDNIVSLTTAESESFVLDFPQPSADYLDFRNRLQTNHVCLENCVLKEKAIAGTVKVQNLAFEKVVKIRMTFDTWKSFTDFPCQYVKDTYAGSDRDTFSFDISLPEKIQSYERMEFAVCYECNGQSYWDSNKGKNYRITRAELRSTQGMTEPYNGPDFGISFDQFGSPRCSFGLFPEW
modifications: left off: a dimerising Fc or GST
B7: GST-GL(1-94): GST fused to GL residues 1-94 (protein)
chain: MAVDIEYSYSSMAPSLRRERFTFKISPKLNKPLRPCIQLGSKDEAGRMVAPTVQEKKVKKRVSFADNQGLALTMVKVFSEFDDPLDIPFNITEL
modifications: left off: a dimerising Fc or GST
B8: GST-GL(59-284): GST fused to GL residues 59-284 (protein)
chain: KKRVSFADNQGLALTMVKVFSEFDDPLDIPFNITELLDNIVSLTTAESESFVLDFPQPSADYLDFRNRLQTNHVCLENCVLKEKAIAGTVKVQNLAFEKVVKIRMTFDTWKSFTDFPCQYVKDTYAGSDRDTFSFDISLPEKIQSYERMEFAVCYECNGQSYWDSNKGKNYRITRAELRSTQGMTEPYNGPDFGISFDQFGSPRCSFGLFPEWPSYLGYEKLGPYY
modifications: left off: a dimerising Fc or GST
B9: GST-GL(134-284): GST fused to GL residues 134-284 (protein)
chain: LENCVLKEKAIAGTVKVQNLAFEKVVKIRMTFDTWKSFTDFPCQYVKDTYAGSDRDTFSFDISLPEKIQSYERMEFAVCYECNGQSYWDSNKGKNYRITRAELRSTQGMTEPYNGPDFGISFDQFGSPRCSFGLFPEWPSYLGYEKLGPYY
modifications: left off: a dimerising Fc or GST
B10: GST-GL(170-284): GST fused to GL residues 170-284 (protein)
chain: SFTDFPCQYVKDTYAGSDRDTFSFDISLPEKIQSYERMEFAVCYECNGQSYWDSNKGKNYRITRAELRSTQGMTEPYNGPDFGISFDQFGSPRCSFGLFPEWPSYLGYEKLGPYY
modifications: left off: a dimerising Fc or GST

How the values were obtained:
PP1GL complex = conditions: previous experiments; cited from earlier work
PP1γ = PP1γ (Homo sapiens, UniProt P36873); assay: Blot overlay binding of digoxigenin-labelled PP1γ to GST-GL fusion proteins; conditions: fusion proteins on nitrocellulose membranes
Description: (§1) GST-GL fusion proteins were separated on SDS-PAGE and transferred to nitrocellulose membranes. They were probed with digoxigenin-PP1γ. Alternatively they were examined for binding of ^32P-labelled phosphorylase a. Non-specific binding to the membranes was blocked by incubation in 5% (w/v) marvel dried milk powder, 25 mM Tris/HCI pH 7.5, 500 mM NaCl for 16 hours. The samples were then probed for 3 h with ^32P-labelled phosphorylase a (100 nM) in 25 mM Tris/HCl pH 7.5, 250 mM NaCl, 1 mg/ml bovine serum albumin. The membranes were subsequently washed (3×30 min) with 25 mM Tris/HCl pH 7.5 before autoradiography.

phosphorylase a = molecular target: T1, phosphorylase a; assay: Blot overlay binding of 32P-labelled phosphorylase a to GST-GL fusion proteins; conditions: 100 nM 32P-phosphorylase a, fusion proteins on nitrocellulose membranes
Description: as §1

PP1 = conditions: recent studies; cited from earlier work
[1] = Co-sedimentation of GST-GL fusion proteins with hepatic glycogen; assay type: binding, rabbit
Description: Protein free glycogen was prepared by the following protocol. Glycogen-protein particles were isolated from the livers of New Zealand White rabbits. Protein was then stripped from the glycogen by boiling for 5 min in 1% (w/v) sodium dodecyl sulphate (SDS). The suspension was cooled to room temperature and centrifuged for 60 min at 100,000×g. The 100,000×g pellet was then resuspended in water, and the centrifugation and resuspension procedure repeated a further two times in order to completely remove residual SDS and protein. Any contaminating nucleotides were removed by incubating the glycogen for 15 min with mixed bed resin, AG 501-X8(D). The resin was removed by filtration and the glycogen concentration determined by the phenol/sulphuric acid method.
Protein free glycogen (10 mg/ml) in 50 mM Tris/HCl pH 7.5, 150 mM NaCl, 0.1% (v/v) 2-mercaptoethanol, 0.02% (w/v) Brij-35, 0.1 mg/ml bovine serum albumin was mixed with GST-GL fusion proteins (50 nM). […] The supernatant and pellet fractions were denatured in SDS, subjected to SDS-polyacrylamide gel electrophoresis and transferred to nitrocellulose. […]

Sequence of PP1γ (P36873 whole entry, the tested form may be a part): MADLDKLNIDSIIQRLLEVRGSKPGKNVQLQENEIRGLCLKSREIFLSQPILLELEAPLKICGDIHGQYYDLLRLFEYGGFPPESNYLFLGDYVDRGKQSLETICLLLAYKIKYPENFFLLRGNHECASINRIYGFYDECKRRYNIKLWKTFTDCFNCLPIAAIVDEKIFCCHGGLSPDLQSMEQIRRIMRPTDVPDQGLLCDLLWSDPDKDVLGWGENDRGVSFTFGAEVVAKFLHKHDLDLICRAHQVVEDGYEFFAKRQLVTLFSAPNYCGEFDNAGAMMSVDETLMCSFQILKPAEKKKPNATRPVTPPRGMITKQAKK

Molecule	binding of digoxigenin-labelled PP1γ (PP1γ)	binding of 32P-labelled phosphorylase a (phosphorylase a)	also measured
M110 1-38: peptide comprising the amino terminal 38 residues of the M110 subunit of the myosin targeting subunit of PP1 (MKMADAKQKRNEQLKRWIGSETDLEPPVVKRQKTKVKF; UniProt O14974 1-38, looked up, fragment)			disruption of the PP1GL complex (PP1GL complex): could disrupt the PP1GL complex
GST-GL(1-59): GST fused to GL residues 1-59 ({GST}-MAVDIEYSYSSMAPSLRRERFTFKISPKLNKPLRPCIQLGSKDEAGRMVAPTVQEKKVK)	not		
GST-GL(257-284): GST fused to GL residues 257-284 ({GST}-QFGSPRCSFGLFPEWPSYLGYEKLGPYY)		found to bind	
GST-GL(269-284): GST fused to GL residues 269-284, the C-terminal 16 amino acids ({GST}-PEWPSYLGYEKLGPYY)		found to bind	
GM 63-75: peptide of amino acids 63 to 75 of GM (RVSFADSFGFNLV; UniProt Q16821 63-75, looked up, fragment)			binding to PP1 (PP1): shown to bind PP1
GM 63-93: peptide comprising residues 63-93 of the skeletal muscle glycogen targeting subunit (RVSFADSFGFNLVSVKEFDCWELPSASTTFD; UniProt Q16821 63-93, looked up, fragment)			disruption of the PP1GL complex (PP1GL complex): did not abolish binding of GL to PP1
B1	binds	found to bind	aggregation (pelleted in the absence of glycogen) ([1]; 100 000×g for 1 h, absence of glycogen): strong tendency to aggregate
B2	not		co-sedimentation with glycogen (binding to glycogen) ([1]; protein free glycogen 10 mg/ml, fusion protein 50 nM, 100,000×g, immunoblot of supernatant and pellet): detected exclusively in the 100,000×g pellet
B3		found to bind	
B4		not	
B5		not	
B6		not	
B7	binds		
B8	binds		
B9	not		
B10	not		
